B1: X203: mouse anti-mouse IL-11 IgG (IgG1κ), neutralising; VH SEQ ID NO:22, VL SEQ ID NO:23 (antibody, V domains shown)
VH: EVQLQQSGPELVKPGASVKIPCKASGYTFTDYNMDWVKQSHGKSLEWIGDINPHNGGPIYNQKFTGKATLTVDKSSSTAYMELRSLTSEDTAVYYCARGELGHWYFDVWGTGTTVTVSS
VL: DIVLTQSPASLAVSLGQRATISCRASKSVSTSGYSYIHWYQQKPGQPPKLLIYLASNLDSGVPARFSGSGSGTDFTLNIHPVEEEDAATYYCQHSRDLPPTFGGGTKLEIK
modifications: Enx203 VH; Enx203 VL
B2: X209: mouse anti-mouse IL-11Rα IgG (IgG1κ), neutralising; VH SEQ ID NO:24, VL SEQ ID NO:25 (antibody, V domains shown)
VH: QVQLQQPGAELVRPGSSVKLSCKASGYTFTNYWMHWLKQRPVQGLEWIGNIGPSDSKTHYNQKFKDKATLTVDKSSSTAYMQLNSLTSEDSAVYYCARGDYVLFTYWGQGTLVTVSA
VL: DIVLTQSPATLSLSPGERATLSCRASQSISNNLHWYQQKSHEAPRLLIKYASQSISGIPARFSGSGSGTDFTLSFSSLETEDFAVYFCQQSYSWPLTFGQGTKLEIK
modifications: Enx209 VH; Enx209 VL

Legend:
[1] = system: MCD-fed db/db mice; assay: MCD-fed db/db mouse NASH model; assay type: in vivo
Protocol: FIGS. 20A to 20N. Therapeutic targeting of Il-11 inhibits and reverses NASH pathologies in preclinical models. (A) Schematic showing therapeutic use of X203 and X209 (10 mg/kg, biweekly) in HFMCD-fed mice for experiments shown in (B-E). X203, X209 or IgG isotype control were administered from week 6 to 10 of HFMCD diet. (B) Representative liver histological images (Masson's Trichrome staining; scale bars, 100 μm), (C) relative liver hydroxyproline content, (D) relative liver pro-inflammatory mRNA expression levels (n≥6/group) and (E) serum ALT levels. (F) Western blots of hepatic Erk activation status. (G) Schematic of X203 or IgG administration to MCD-fed db/db mice for experiments shown in H-N. Western blots of hepatic (H) Il-11 and Gapdh, (I) p-Erk and Erk. (J) Representative Masson's Trichrome images of liver from X203 or IgG-treated MCD-fed db/db mice (scale bars, 100 μm). The levels of (K) hepatic triglyceride, (L) relative liver hydroxyproline, (M) serum ALT, and (N) mRNA expression of liver pro-inflammatory markers (n≥5/group). (C-E,K-N) Data are shown as box-and-whisker with median (middle line), 25th-75th percentiles (box) and min-max percentiles (whiskers); two-tailed, Tukey-corrected Student's t-test. FC: fold change; NC: normal chow; HFMCD: high fat methionine- and choline-deficient; MCD: methionine- and choline-deficient.
Male BKS.Cg-Dock7m+/+LeprdbJ (db/db) mice on C57BL/6J genetic background were 12 weeks of age and at the hepatic steatosis stage when they were fed methionine- and choline-deficient diet (MCD, A02082002BRi, Research Diets) for 8 weeks; control mice were of the same genotype. Durations of diet and antibody therapies are described.
Mice were injected intraperitoneally with either antagonist anti-IL-11 antibody, antagonist anti-IL11RA antibody or an identical amount of IgG isotype control for the treatment durations outlined in the figures.

[2] = system: HSCs; assay: HSC-to-myofibroblast transformation (ACTA2/Collagen I, Operetta); assay type: cell-based, human; conditions: antibody 2 μg/ml, 24 h
Protocol: Cells (atrial fibroblasts, HSCs and hepatocytes) were grown and maintained at 37° C. and 5% CO2. The growth medium was renewed every 2-3 days and cells were passaged at 80-90% confluence using standard trypsinization techniques. All the experiments were carried out at low cell passage (P1-P2). Cells were serum-starved for 16 h prior to stimulations. Stimulated cells were compared to unstimulated cells that have been grown for the same duration under the same conditions (serum-free media), but without the stimuli.
HSCs (5300, ScienCell) were cultured in stellate cells complete media (5301, ScienCell) on poly-L-lysine-coated plates (2 μg/cm2, 0403, ScienCell).
The Operetta assay was performed mostly as described previously 11 with minor modifications described here: HSCs or hepatocytes were seeded in 96-well black CellCarrier plates (PerkinElmer) at a density of 5×10^3 cells per well. Following experimental conditions, cells were fixed in 4% paraformaldehyde (PFA, 28908, Thermo Fisher), permeabilized with 0.1% Triton X-100 (Sigma) and non-specific sites were blocked with 0.5% BSA and 0.1% Tween-20 in PBS. Cells were incubated overnight (4° C.) with primary antibodies (1:500), followed by incubation with the appropriate AlexaFluor 488 secondary antibodies (1:1000). Rhodamine Phalloidin staining (1:1000, R415, Thermo Fisher) was performed by overnight incubation (4° C.). […]

[3] = system: primary human hepatocytes; assay: Palmitate loading (lipotoxicity) of primary human hepatocytes; assay type: cell-based
Protocol: Palmitate:BSA conjugated solution in the ratio of 6:1 was prepared as described earlier (Alsabeeh et al., 2018). Palmitate (0.5 mM) conjugated in fatty acids free BSA was used to treated cells as described in figure legends; 0.5% BSA solution was used as control. […]
Primary human hepatocytes were seeded on 8-well chamber slides (1×10^4 cells/well). For this experiment, cells were not serum-starved prior to palmitate treatment. 24 hours following palmitate stimulation, cells were washed, incubated with 25 μM of DCFDA solution (ab113851, Abcam) for 45 minutes at 37° C. in the dark, and rinsed with dilution buffer according to the manufacturer's protocol. Live cells with positive DCF staining were imaged with filter set appropriate for fluorescein (FITC) using a fluorescence microscope (Leica). […]
Western blots were carried out on total protein extracts from hepatocytes and liver tissues. Hepatocyte and liver tissue lysates were homogenized in RIPA Lysis and Extraction Buffer (89901, Thermo Scientific) containing protease and phosphatase inhibitors (Roche). Protein lysates were separated by SDS-PAGE and transferred to PVDF membranes. Protein bands were visualized using the ECL detection system (Pierce) with the appropriate secondary antibodies: anti-rabbit HRP or anti-mouse HRP.

[4] = system: PSCs; assay: Pancreatic stellate cell (PSC) activation in vitro; assay type: cell-based; conditions: 24 hours
Protocol: FIGS. 48A and 48B. Box plots and images showing activation of pancreatic stellate cells (PSCs) to a αSMA-positive, collagen-expressing fibrogenic phenotype. (A) Quantification of high-content imaging assays for the percentage of ACTA2-positive cells and collagen I intensity/area following in vitro stimulation of PSCs for 24 hours with the indicated factors, in the presence or absence of neutralising anti-IL-11 RA antibody or IgG isotype control antibody. (B) Representative images for high-content imaging analysis of collagen I intensity/area following in vitro stimulation of PSCs for 24 hours with the indicated factors, in the presence of neutralising anti-IL-11 RA antibody or IgG isotype control antibody.

| Molecule | ALT levels [1] | hepatic Erk activation [1] | hepatic fibrosis [1] | hepatic inflammation [1] | hepatic steatosis [1] | HSC transformation downstream of all factors, including IL-11 [2] | palmitate-induced signaling events ([3]; Western blot) | secretion of cytokines (IL11, IL6, CCL2, CCL5) ([3]; X209 2 μg/ml or sgp130 1 μg/ml) | NOX4 upregulation by palmitate ([3]; palmitate) | caspase3 activation ([3]; palmitate) | fatty acid synthase (FASN) upregulation ([3]; palmitate) | triglyceride accumulation ([3]; palmitate) | ROS production ([3]; sFA-loaded hepatocytes) | glutathione (GSH) levels ([3]; sFA-loaded hepatocytes) | PSC activation irrespective of the stimulus (TGFβ1, IL-11, bFGF, CTGF, PDGF or ET-1) [4] |
| --- | --- | --- | --- | --- | --- | --- | --- | --- | --- | --- | --- | --- | --- | --- | --- |
| B1 | lowering | inhibited | reduced | reduced | reduced | – | – | – | – | – | – | – | – | – | – |
| B2 | – | – | – | – | – | abolished | largely inhibited | reduced the secretion of all cytokines | inhibited | largely inhibited | largely inhibited | largely inhibited | prevent ROS production | partial restoration | inhibited |
